The target in test [1] is single domain antibody against GFP with a six histidine-tag at the C-terminal (GFP-Nb) (llama). Put plainly: SPR; GFP-Nb diluted in NTA running buffer of pH 4.0-10.5, then captured on Ni:NTA chip; 30 nM GFP as analyte; constants given for the whole pH range. Background: SPR reads the build-up and loss of mass on a sensor chip optically.
Test [2] shares this target. Kind of test: SPR; GFP-Nb captured on Ni:NTA chip; 30 nM GFP diluted in NTA running buffer with different NaCl concentrations (up to 1 M) as analyte; constants given for all NaCl concentrations.
Test [3] has the same target. Kind of test: SPR; GFP-Nb heated for 30 min at 25-100°C and cooled 30 min at room temperature, then captured on Ni:NTA chip; 30 nM GFP as analyte; NTA running buffer, 25°C; constants given for the whole temperature range.
For test [4] the target is unchanged. Put plainly: SPR; BIAcore X100, 25°C; GFP-Nb amine-coupled to a CM5 chip (~2500 R.U.), GFP as analyte (0.2-1000 nM; 10 nM with dissociation followed for 36000 s for koff); 10 mM HEPES pH 7.4, 0.15 M NaCl, 0.05% tween 20; KD from end-point response (Hill coefficient 1).
Test [5] has the same target. Put plainly: SPR; BIAcore X100, 25°C; GFP-Nb (~3 nM, ~50 R.U.) captured by its His tag on Ni:NTA chip, GFP as analyte (0.1-1000 nM), 30 μl/min; 10 mM HEPES pH 7.4, 0.15 M NaCl, 50 μM EDTA, 0.05% tween 20; kon and koff from 1:1 fit, KD from end-point response (Hill equation).
For test [6] the target is unchanged. Kind of test: SPR; BIAcore X100, 25°C; GFP-Nb captured by its His tag on anti-polyhistidine antibody amine-coupled to a CM5 chip, GFP as analyte, 30 μl/min; 10 mM HEPES pH 7.4, 0.15 M NaCl, 0.05% tween 20; kon and koff from 1:1 fit, KD from end-point response (Hill equation).

Consider 1 substance from publication PMC4378939.

single domain antibody against GFP with a six histidine-tag at the C-terminal (GFP-Nb) (llama), sequence (heavy, as listed by the source): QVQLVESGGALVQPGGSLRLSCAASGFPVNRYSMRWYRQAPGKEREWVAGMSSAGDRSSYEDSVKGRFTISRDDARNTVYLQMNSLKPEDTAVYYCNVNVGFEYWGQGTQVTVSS

With “Green Fluorescent Protein (GFP) (from UniProt P42212 1-238) (natural protein)”, the koff (as a rule, a measure of how fast the partners let go of each other) in test [1] turned out to be 0.00064 s⁻¹; in test [2], 0.00063 s⁻¹; in test [3], 0.00063 s⁻¹; in test [4], 1.4e-05 s⁻¹; in test [5], 0.00071 s⁻¹; in test [6], 0.00029 s⁻¹. The kon (commonly the second-order rate constant of association) in test [1] amounted to 1.4e+06 M⁻¹ s⁻¹; in test [2], 1.5e+06 M⁻¹ s⁻¹; in test [3] it was 1.5e+06 M⁻¹ s⁻¹; in test [5], 1.1e+06 M⁻¹ s⁻¹; in test [6], 1e+06 M⁻¹ s⁻¹. Also, the Kd – broadly, the equilibrium constant for the complex coming apart – was 9.6 nM in test [4], 6.1 nM in test [5] and 5.5 nM in test [6].
